As a reminder, the Kd is the equilibrium constant for the complex coming apart. The term koff denotes the rate constant with which the complex falls apart. As usually defined, the kon is a measure of how fast the partners come together.

We go through one molecule from paper PMC9500498 (Circulation research, 2021).

The target of the test is calmodulin (CaM), recombinant (UniProt P0DP23 1-149). Nature of the test: SPR.

Ends that are not written are not given here. * marks the point of attachment. Biotin = O=C1N[C@H]2[C@H](CS[C@H]2CCCCC(=O)*)N1; Ahx = NCCCCCC(=O)O

B1: biotin-ahx-AKAP18δ-N (79–98) (peptide)
peptide: {Biotin-Ahx}-KKRKKAKKDYQPNYFLSIPI
For the molecule B1, the Kd stood at 4.7 ± 0.7 µM, the off-rate (koff) was determined as 0.00053 s⁻¹ and the kon was 130 M⁻¹ s⁻¹.
